Test results published in the RNAGym collection of RNA variant scans (doi:10.1073/pnas.2313332121).
Fewer inactive variants are shown than the library holds.

B1: TPR 5TU (parent)
chain: GGAUCUUCUCGAUCUAACAAAAAAGACAAAUCUGCCACAAAGCUUGAGAGCAUCUUCGGAUGCAGAGGCGGCAGCCUUCGGUGGCGCGAUAGCGCCAACGUUCUCAACUAUGACACGCAAAACGCGUGCUCCGUUGAAUGGAGUUUAUCAUG

Variants of: B1
Test: polymerase ribozyme fitness, log enrichment relative to wild type (log ratio); higher = more active; in vitro selection for triplet polymerase activity
Method in brief: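 Input and output libraries were sequenced on Illumina after a single in vitro selection round, run in triplicate on PCR-built, transcribed mutant libraries of each subunit of a heterodimeric triplet polymerase ribozyme. Selection annealed libraries to a biotinylated primer, the partner subunit and triplets, incubated them frozen at −7 °C, then gel-excised extended constructs for streptavidin-bead capture and RT-PCR. Genotypes with ≥10 input reads and ≥1 read per output were kept. Fitness is the logarithm, taken in base 2, of genotype enrichment divided by wild-type enrichment, using inverse-variance-weighted replicate averages.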

Going from A22U G50U C54U A66C A91G G92U A138G to A22G G59A A60C C85A G94A C105U G126A, the “polymerase ribozyme fitness (log ratio)” value rises from no more than -4.2 to -4.1.

Compared with A22U U55A, A23C A29U C38U C54A G84A A98U A106G A137U is lower in “polymerase ribozyme fitness (log ratio)” value: -0.43 for the first, no more than -4.2 for the second.

Compared with A22U U55A C96U, A23C A28C G46A U55A C96U is lower in “polymerase ribozyme fitness (log ratio)” value: -0.172 for the first, no more than -4.2 for the second.

A23G C27G A40U C75U G81C G94C U101A U109A and A22U A47U U53G U55A C57U G68A G86C C99U A138C U148G cannot be ordered by “polymerase ribozyme fitness (log ratio)” value: no more than -4.2 for the first, no more than -4.2 for the second.

Compared with A22U G58C G92U G124C, A22U G88C A147C is lower in “polymerase ribozyme fitness (log ratio)” value: -0.925 for the first, -4.19 for the second.

Going from A22G A39G U61A G88C A121C U146G to A23G C85A A98C, the “polymerase ribozyme fitness (log ratio)” value rises from no more than -4.2 to -3.17.

Compared with A22U A30U C32A U78G G88A G117U U139G, A22U C85A is higher in “polymerase ribozyme fitness (log ratio)” value: no more than -4.2 for the first, -0.394 for the second.

A23G A91U G140C and A22U G25A A41C A91G G94C cannot be ordered by “polymerase ribozyme fitness (log ratio)” value: no more than -4.2 for the first, no more than -4.2 for the second.

A23C C32A U56A A60G C103A A110G G112C and A23C U53A G83C A91G A147U cannot be ordered by “polymerase ribozyme fitness (log ratio)” value: no more than -4.2 for the first, no more than -4.2 for the second.

First: A23G C32G G70A C85G
Second: A22U U31C G81C A89C
The “polymerase ribozyme fitness (log ratio)” value of the first is lower: no more than -4.2 for the first, 1.01 for the second.

Going from A23C A49G C93U U148C to A22C G92C, the “polymerase ribozyme fitness (log ratio)” value rises from no more than -4.2 to -1.73.

A23G C36A C105A A107G U145A and A22G A24U U55A C75G C76A C95G G124U G136U cannot be ordered by “polymerase ribozyme fitness (log ratio)” value: no more than -4.2 for the first, no more than -4.2 for the second.

A23G A37G A39G U44A A64U C75U C95U C108A A142U and A23C A29C U31G U33C C95U C96U A107U U127C A138C cannot be ordered by “polymerase ribozyme fitness (log ratio)” value: no more than -4.2 for the first, no more than -4.2 for the second.

Compared with A22G C36U C87U, A22U A49U is higher in “polymerase ribozyme fitness (log ratio)” value: -3.06 for the first, -0.913 for the second.

A23C U33A A41G U45A C87G C103G and A22G U31C U44A C95G A150G cannot be ordered by “polymerase ribozyme fitness (log ratio)” value: no more than -4.2 for the first, no more than -4.2 for the second.

First: A22U A120G U144A
Second: A22G A52U C85U U109G
The “polymerase ribozyme fitness (log ratio)” value of the first is higher: 0.42 for the first, -3.97 for the second.

A22U A41G C93U A107U C108U C129U G133U A142C and A23C C54U U55A G71A A122G cannot be ordered by “polymerase ribozyme fitness (log ratio)” value: no more than -4.2 for the first, no more than -4.2 for the second.

A22C U55G G67A U78A C93G C99A C149G and A22G A30U C36G G83C U146G cannot be ordered by “polymerase ribozyme fitness (log ratio)” value: no more than -4.2 for the first, no more than -4.2 for the second.

A22U C57A and A22U A49G C54U C85U are within 0.2 log units of each other in “polymerase ribozyme fitness (log ratio)” value: -0.719 for the first, -0.721 for the second.

Going from A22U G86C to A22G C72G C87U C93A C99A, the “polymerase ribozyme fitness (log ratio)” value falls from -3.34 to no more than -4.2.

A22U A39U C57U G59A U101G U148C A150C and A23G C51U G65C G88C U111A C131G C149G cannot be ordered by “polymerase ribozyme fitness (log ratio)” value: no more than -4.2 for the first, no more than -4.2 for the second.

First: A22G G70U C118U
Second: A22G U31G C54U C96G A115G C123G A137C
The “polymerase ribozyme fitness (log ratio)” value of the first is higher: -3.77 for the first, no more than -4.2 for the second.

Going from A22C C85G U109A to A22C U53A C57U G100A A119G A142C G152A, the “polymerase ribozyme fitness (log ratio)” value falls from -3.43 to no more than -4.2.

First: A22U C108U
Second: A22G G59A
The “polymerase ribozyme fitness (log ratio)” value of the first is lower: -2.85 for the first, -0.246 for the second.

First: A22C U56A C57G G86U A142G
Second: A23G A52C A98U
The “polymerase ribozyme fitness (log ratio)” value of the first is higher: -3.37 for the first, -3.98 for the second.

First: A22C G141U
Second: A22G C54U C85U C116G
The “polymerase ribozyme fitness (log ratio)” value of the first is higher: 1.81 for the first, 1.12 for the second.

Compared with A22U A115C, A23G C54A U55G G58A G59C is lower in “polymerase ribozyme fitness (log ratio)” value: -0.374 for the first, -4.08 for the second.

A23C U31G C108G A115G and A22C G25A C51U A66C C85G C93U C116A cannot be ordered by “polymerase ribozyme fitness (log ratio)” value: no more than -4.2 for the first, no more than -4.2 for the second.

First: A22G A113C
Second: A23G A64G G81A C108A G124U G143U
The “polymerase ribozyme fitness (log ratio)” value of the first is higher: -2.12 for the first, no more than -4.2 for the second.

A23C C43U U53G G81C C87A G143A and A23C C35G G58A C95A C99A C149U cannot be ordered by “polymerase ribozyme fitness (log ratio)” value: no more than -4.2 for the first, no more than -4.2 for the second.

Compared with A23G A40C G81A U145C, A23C U55A C87G C114G G133U G136U is lower in “polymerase ribozyme fitness (log ratio)” value: -3.98 for the first, no more than -4.2 for the second.

Compared with A22G C108U, A22U A40U G42C C75A U90G is lower in “polymerase ribozyme fitness (log ratio)” value: -4.08 for the first, no more than -4.2 for the second.

First: A22G C93A
Second: A22G C93U
The “polymerase ribozyme fitness (log ratio)” value of the first is lower: -1.55 for the first, -0.637 for the second.

A23C U44C A64C G92C A97U and A22U A30G G46C G50C A52C U55G C72U U82A C87A G88C U90A C99U cannot be ordered by “polymerase ribozyme fitness (log ratio)” value: no more than -4.2 for the first, no more than -4.2 for the second.

A22U C36A G83A U145A and A22G C36A G48A C95G G140C cannot be ordered by “polymerase ribozyme fitness (log ratio)” value: no more than -4.2 for the first, no more than -4.2 for the second.

Going from A23C C87U to A23C C87G, the “polymerase ribozyme fitness (log ratio)” value falls from -3.89 to no more than -4.2.

Going from A23G C54U C93U G128C to A22U C87U, the “polymerase ribozyme fitness (log ratio)” value rises from no more than -4.2 to 0.455.

Compared with A22U C87A, A22U G34A G74U G94A A119C G143A is lower in “polymerase ribozyme fitness (log ratio)” value: -4.14 for the first, no more than -4.2 for the second.

Compared with A22G G50U U56G G58U C76U A122G, A22C U44A C87U C103U is lower in “polymerase ribozyme fitness (log ratio)” value: -4.16 for the first, no more than -4.2 for the second.

Going from A22C U53A U56A A73G to A22G U55A A89C, the “polymerase ribozyme fitness (log ratio)” value rises from -1.97 to -0.257.

First: A22G A110G
Second: A22C G50U G67U G74U G92C C149G
The “polymerase ribozyme fitness (log ratio)” value of the first is higher: -3.28 for the first, no more than -4.2 for the second.

For A23G A49U C51U U53A A60G U61A G71U A73G C85A C87A C105G, the “polymerase ribozyme fitness (log ratio)” value was no more than -4.2.
